Assay results as given in the supplement of paper PMC10724198.
± gives the standard deviation of the averaged measurements.

Tests used:
[1] = test system: Saccharomyces cerevisiae; experiment: protein stability index of tFT-peptide fusion (C-terminal peptide) (PSI (0-1 scale)); higher = more stable (slower turnover); conditions: genetic background: wild type; temperature: 30 C
[2] = test system: Saccharomyces cerevisiae; experiment: as above
Protocol: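 MPS profiling in S. cerevisiae of the tFT-X12 degron library: putative degron peptides plus stable controls, 12 aa, fused to the C-terminus of a sfGFP-mCherry timer. Cells are FACS-sorted into 8 mCherry/sfGFP bins and deep-sequenced. PSI runs from 0 (unstable) to 1 (stable). Backgrounds are wild type, das1Δ and doa10Δ at 30 °C, and wild type, das1Δ, cdc34-1 and cdc53-1 at 37 °C; 2-3 technical replicates each.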

[3] = genetic background: cdc34-1, temperature: 37 C
[4] = genetic background: cdc53-1, temperature: 37 C
[5] = genetic background: das1 deletion, temperature: 30 C
[6] = genetic background: das1 deletion, temperature: 37 C
[7] = genetic background: doa10 deletion, temperature: 30 C
[8] = genetic background: wild type, temperature: 30 C
[9] = genetic background: wild type, temperature: 37 C
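Note: PSI is a weighted mean of sequencing reads over stability bins, variants kept only with over 10 reads, mCherry proximal and sfGFP distal, peptide attached via GGGS linker.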

Row | Sequence | protein stability index [1] | protein stability index [2, 3] | protein stability index [2, 4] | protein stability index [2, 5] | protein stability index [2, 6] | protein stability index [2, 7] | protein stability index [2, 8] | protein stability index [2, 9]
1 | RRVLVVPCIWHM | 0.327 ± 0.0065 | 0.653 ± 0.031 | 0.73 ± 0.011 | 0.604 ± 0.015 | 0.673 ± 0.048 | 0.174 ± 0.026 | 0.223 ± 0.022 | 0.416 ± 0.022
2 | LSVMKLFVMVGP | 0.401 ± 0.039 | 0.442 ± 0.0094 | 0.493 ± 0.027 | 0.37 ± 0.026 | 0.5023 ± 0.0045 | 0.358 ± 0.0093 | 0.377 ± 0.029 | 0.479 ± 0.012
3 | IFHWLYLLIALI | 0.309 ± 0.014 | 0.459 ± 0.025 | 0.497 ± 0.015 | 0.436 ± 0.027 | 0.524 ± 0.0054 | 0.2701 ± 0.0025 | 0.254 ± 0.029 | 0.312 ± 0.014
4 | LFFWVLTVMFVW | 0.302 ± 0.046 | 0.162 ± 0.025 | 0.23 ± 0.0048 | 0.224 ± 0.013 | 0.3199 ± 0.00034 | 0.222 ± 0.011 | 0.195 ± 0.015 | 0.283 ± 0.015
5 | RWGLFIGIVIGF | 0.337 ± 0.021 | 0.146 ± 0.0085 | 0.211 ± 0.003 | 0.219 ± 0.037 | 0.338 ± 0.0087 | 0.235 ± 0.014 | 0.217 ± 0.024 | 0.317 ± 0.025
6 | LCIYNFGWWFCV | 0.183 ± 0.056 | 0.494 ± 0.011 | 0.637 ± 0.044 | 0.561 ± 0.036 | 0.6389 ± 0.0054 | 0.121 ± 0.015 | 0.134 ± 0.0087 | 0.128 ± 0.014
7 | LLLIGISFLIFY | 0.352 ± 0.05 | 0.184 ± 0.048 | 0.287 ± 0.0035 | 0.208 ± 0.029 | 0.385 ± 0.008 | 0.199 ± 0.025 | 0.21 ± 0.025 | 0.335 ± 0.052
8 | LAVVLVWVPGRW | 0.418 ± 0.026 | 0.443 ± 0.037 | 0.526 ± 0.057 | 0.335 ± 0.032 | 0.563 ± 0.019 | 0.311 ± 0.0059 | 0.347 ± 0.023 | 0.561 ± 0.05
9 | RFCLPLRLPVTT | 0.4497 ± 0.0012 | 0.533 ± 0.028 | 0.5626 ± 0.0042 | 0.461 ± 0.037 | 0.5865 ± 0.0022 | 0.439 ± 0.0083 | 0.458 ± 0.016 | 0.589 ± 0.045
10 | FSVLLLANFCFF | 0.482 ± 0.0056 | 0.498 ± 0.031 | 0.516 ± 0.0072 | 0.409 ± 0.037 | 0.554 ± 0.015 | 0.363 ± 0.016 | 0.407 ± 0.043 | 0.528 ± 0.015
